Series [1] has as its system Jurkat cells. Put plainly: In vitro cell death assay (annexin V / 7-AAD). In kind it is cell-based, human. As to conditions: 1 μg/ml soluble mAb, 24 hrs. As for the experimental part: Induction of cell death by soluble anti-CD47 mAbs is measured in vitro (Manna et al. (2003) J. Immunol. […] (7): 3544-53, Kikuchi et al. Biochem Biophys Res. Commun. 315: 912-8, 2004), Pettersen et al. J. Immuno. 162: 7031-7040, 1999), Manna et al. Cancer Research, 64: 1026-1036, 2004). For the in vitro cell death assay, 1×10^5 transformed human T cells (Jurkat cells) were incubated with soluble humanized VLX4, VLX8, and VLX9 CD47 mAbs (1 μg/ml) for 24 hrs at 37° C. As cell death occurs, mitochondrial membrane potential is decreased, the inner leaflet of the cell membrane is inverted, exposing phosphatidylserines (PS), and propidium iodide (PI) or 7-aminoactinomycin D (7-AAD) is able to incorporate into nuclear DNA. In order to detect these cellular changes, cells were then stained with fluorescently labelled annexin V and PI or 7-aminoactinomycin D (7-AAD) (BD Biosciences) and the signal detected using an Accuri C6 flow cytometer (BD Biosciences). The increase in PS exposure is determined by measuring the percent increase in annexin V signal and the percent of dead cells by measuring the percent increase in PI or 7-AAD signal. Annexin V positive (annexin V+) or annexin V positive/7-AAD negative (annexin V^+/7-AAD^−) cells are observed in early stages of cell death and annexin V positive/7-AAD positive (annexin V^+/7-AAD^+) cells are dead cells. […]

In series [2] the test system is human red blood cells (hRBCs). Put plainly: Hemagglutination of washed hRBCs. In kind it is cell-based. As to conditions: mAb concentrations 50 μg/ml down to 0.3 ng/ml or 0.3 pg/ml. The protocol: Hemagglutination of hRBCs was assessed following incubation of hRBCs with various concentrations of chimeric and humanized VLX4, VLX8, and VLX9 mAbs in vitro essentially as described by Kikuchi et al. Biochem Biophys Res. Commun (2004) 315:912-918. Blood was obtained from healthy donors, diluted (1:50) in PBS/1 mM EDTA/BSA and washed 3 times with PBS/EDTA/BSA. hRBCs were added to U-bottomed 96 well plates with equal volumes of the antibodies (75 μl of each) and incubated for 3 hrs at 37° C. and overnight at 4° C.

Series [3] addresses T1, recombinant human CD47 (His-CD47) (Homo sapiens, UniProt Q08722).
T1 construct: His; purchased Acro Biosystems
Put plainly: Solid-phase His-CD47 ELISA at pH 6 or pH 8. As to conditions: pH 6.0 vs pH 8.0. In kind it is binding. As for the experimental part:
Binding by soluble anti-CD47 mAbs to immobilized recombinant human CD47 and to human CD47 expressed on cells was measured in vitro. For the in vitro binding to recombinant CD47, His-CD47 (AcroBiosystems) was adsorbed to high-binding microtiter plates overnight at 4° C. The wells were washed and varying concentrations of anti-CD47 mAbs were added to the wells in buffers with a of either pH 6 or pH 8 for 1 hour. The wells were washed and then incubated with HRP-labelled secondary antibody for 1 hour at pH 6 or pH 8 followed by addition of peroxidase substrate. The apparent affinities were calculated using non-linear fit model (Graphpad Prism).

T1 sequence (Q08722 19-323): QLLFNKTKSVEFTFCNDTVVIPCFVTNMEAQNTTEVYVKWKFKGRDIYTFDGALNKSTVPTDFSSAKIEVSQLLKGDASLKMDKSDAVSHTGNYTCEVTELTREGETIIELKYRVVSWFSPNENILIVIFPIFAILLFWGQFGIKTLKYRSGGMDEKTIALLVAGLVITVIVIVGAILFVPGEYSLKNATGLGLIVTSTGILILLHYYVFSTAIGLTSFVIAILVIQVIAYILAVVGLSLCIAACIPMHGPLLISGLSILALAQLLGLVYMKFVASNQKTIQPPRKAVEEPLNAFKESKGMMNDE

B1: VLX9 IgG2 (xi): chimeric (murine-human) anti-CD47 mAb, human IgG2 (antibody)
heavy: QVQLQQFGAELAKPGASVQMSCKASGYTFTNYWIHWVKQRPGQGLEWIGYTDPRTDYTEYNQKFKDKATLAADRSSSTAYMRLSSLTSEDSAVYYCAGGGRVGLGYWGHGSSVTVSSASTKGPSVFPLAPCSRSTSESTAALGCLVKDYFPEPVTVSWNSGALTSGVHTFPAVLQSSGLYSLSSVVTVPSSNFGTQTYTCNVDHKPSNTKVDKTVERKCCVECPPCPAPPVAGPSVFLFPPKPKDTLMISRTPEVTCVVVDVSHEDPEVQFNWYVDGVEVHNAKTKPREEQFNSTFRVVSVLTVVHQDWLNGKEYKCKVSNKGLPAPIEKTISKTKGQPREPQVYTLPPSREEMTKNQVSLTCLVKGFYPSDIAVEWESNGQPENNYKTTPPMLDSDGSFFLYSKLTVDKSRWQQGNVFSCSVMHEALHNHYTQKSLSLSPGK
light: DVFMTQTPLSLPVSLGDQASISCRSSQNIVQSNGNTYLEWYLQKPGQSPKLLIYKVFHRFSGVPDRFSGSGSGTDFTLKISRVEAEDLGVYYCFQGSHVPWTFGGGTKVEIKRTVAAPSVFIFPPSDEQLKSGTASVVCLLNNFYPREAKVQWKVDNALQSGNSQESVTEQDSKDSTYSLSSTLTLSKADYEKHKVYACEVTHQGLSSPVTKSFNRGEC
In the case of B1, the “PS exposure and cell death (annexin V+, annexin V+/7-AAD−, annexin V+/7-AAD+)” value in series [1] is “induced increased PS exposure and cell death”. The “hemagglutination of hRBCs (in words)” value in series [2] was “caused visible hemagglutination”.

B2: VLX9 IgG (murine): murine VLX9 anti-CD47 antibody (antibody, V domains shown)
VH: QVQLQQFGAELAKPGASVQMSCKASGYTFTNYWIHWVKQRPGQGLEWIGYTDPRTDYTEYNQKFKDKATLAADRSSSTAYMRLSSLTSEDSAVYYCAGGGRVGLGYWGHGSSVTVSS
VL: DVFMTQTPLSLPVSLGDQASISCRSSQNIVQSNGNTYLEWYLQKPGQSPKLLIYKVFHRFSGVPDRFSGSGSGTDFTLKISRVEAEDLGVYYCFQGSHVPWTFGGGTKVEIK
With B2, the “pH dependence of binding to His-CD47” value in series [3] is “did not display pH dependence”.
